Assay results: patent US20240398899A1 (priority 2021, published 2024)
“And” between values parts separate entries of the source, which are not always exact repeats. Equal values may be shown once.

Legend:
[1] = system: neuronal cells (pc12); assay: Neurite formation, basal model; type: cell-based, rat
Procedure: Cells were counted using haemocytometer and plated in 24-well plates at the densities corresponding to 1×10^4 cells/well/500 μl of the growth medium. The cells were then incubated for 48 h in 5% CO2 incubator at 37° C. Effect of Recombinant Lectin having SEQ ID NO: 1 on neurite formation was evaluated in both basal and MPP+ damage induced model.
For basal model the percent increase in neurite formation was determined as follows

[2] = system: Brain NGF (Nerve Growth Factor); assay: Brain biomarker ELISA, scopolamine induced dementia; type: in vivo, Mus musculus (Swiss Albino); settings: for brain nerve growth factor (NGF) Mean: scopolamine 2.5 mg/kg i.p., mice
Procedure: Healthy male Swiss albino mice (n=48) were selected and randomized based on body weight (n=8 per Group) into 6 groups as mentioned in table no-1. The control group G1 was treated intravenously with vehicle daily till the experiment completion. Group G2 was considered as negative control and treated with vehicle. […] Group G4, G5 &G6 animals were treated with the test item recombinant lectin protein having SEQ ID NO: 1 at the dose of 0.5 mg/kg, 0.25 mg/kg and 0.125 mg/kg, respectively. All the test items were given intravenously (i.v) daily at the dose volume of 5 ml/kg for 14 Days. The body weight was recorded daily throughout the experimental period. […] One hour after the last dose of test items (on Day 14) all the animals were injected with scopolamine hydrobromide at the dose of 2.5 mg/kg, i.p., except the normal control group G1. Passive avoidance test was conducted 30 min after scopolamine injection.
After passive avoidance test screening models of memory, the animals were sacrificed humanely. The whole brain was carefully removed from the skull and weighed. Brain was dissected into two portions
10% w/v brain homogenate (100 mg/mL) was prepared by homogenizing it in ice-chilled phosphate buffer. The homogenate was subsequently centrifuged using a refrigerated centrifuge at 3000 rpm for 10 min, and the supernatant was separated and used for the biochemical estimations.
Following biomarkers was estimated using ELISA kit as per manufacturer's instruction. • Brain NGF (Nerve Growth Factor), CUSABIO, Catalog No. CSB-E04684m • Acetylcholinesterase, CUSABIO, Catalog No. CSB-E17521m • TNF alpha, CUSABIO, Catalog No. CSB-E04741m

[3] = system: SH-SY5Y neuronal cells; assay: Mitochondrial membrane potential against MPP+ iodide damage, JC-1 assay; type: cell-based, human; settings: MPP+ iodide 1 mM; for Mitochondrial membrane potential: red/green fluorescence ratio
Procedure: The plated cells were incubated overnight in 5% CO2 incubator at 37° C. After 24 h, cells were treated with concentrations of recombinant lectin protein having SEQ ID NO: 1 ranging from 1 μg/ml-50 μg/ml for 24 h. After 24 h of treatment, cells were exposed to damage (MPP+ iodide 1 mM) for 24 h. […] Untreated cells were included as control. Cells treated with Deprenyl served as positive control. After MPP+ iodide exposure, the protective effect of recombinant lectin protein having SEQ ID NO: 1 on mitochondrial membrane potential was assessed by JC-1 assay as follows; after incubation, the supernatants were discarded and 100 μl of JC1-dye solution (prepared by diluting 1 mM DMSO stock in to 10 μM in 1×PBS) was added to each well. The cells were then incubated with the dye in CO2 incubator at 37° C. for 15 min. After 15 min of incubation, the supernatant was removed, and the cells were washed twice with 1×PBS (phosphate buffer saline). 100 μl of 1×PBS was finally added to each well. Red fluorescence (excitation 550 nm, emission 600 nm) and green fluorescence (excitation 485 nm, emission 535 nm) were measured using Biotek Synergy HT plate reader. The mitochondrial membrane potential (Δψm) was calculated as the ratio of intensity of red fluorescence to intensity of green fluorescence described as follows: • Δψm=Intensity of red fluorescence/Intensity of green fluorescence • The percentage increase/restoration in Mitochondrial Membrane Potential against MPP+ iodide damage was calculated as:
[formula] • Where X=Δψm corresponding to SEQ ID NO: 1+ MPP+ iodide treated cells • R=Δψm corresponding to control cells (MPP+ iodide damage alone)

[4] = system: SH-SY5Y neuronal cells; assay: Cytoprotective effect against MPP+ iodide induced damage, MTT assay; settings: MPP+ iodide 1 mM
Procedure: The Human Neuronal SH-SY5Y Cells were counted using hemocytometer and plated in 96 well plate at a density of 25,000 cells/well and incubated at 37° C. for 24 h. After incubation, cells were treated with recombinant lectin protein having the sequence of SEQ ID NO: 1 at concentrations ranging from 0.001 μg/ml 50 μg/ml for 24 h. After 24 h of treatment, cells were exposed to neurotoxin (MPP+ iodide, 1 mM) for 24 h. Cells treated with MPP+ iodide alone were included as negative control. Untreated cells were included as control. […] After treatment, the cytoprotective effect of SEQ ID NO: 1 on cell viability was assessed by 3-(4,5-dimethythiazol-2-yl)-2,5-diphenyl tetrazolium bromide (MTT) assay: The plate was taken out and 20 μl of 5 mg/ml of MTT 3-(4,5-dimethythiazol-2-yl)-2,5-diphenyl tetrazolium bromide solution was added to all the wells. The SH-SY5Y cells were incubated for 3 h at 37° C. The supernatant was aspirated and 150 μl of DMSO was added to each well to dissolve formazan crystals. The absorbance of each well was read at 540 nm using Synergy HT micro plate reader. The protective effect of the SEQ ID NO: 1 on survival of SH-SY5Y cells against MPP+ iodide induced damage was determined as: The viability of cells was determined as:
Where, the percentage cytotoxicity corresponding to each treatment was calculated as follows:
[formula] • X=Absorbance of cells treated with MPP+ iodide/recombinant lectin having SEQ ID NO: 1+MPP+Iodide • R=Absorbance of Control cells (Untreated) • Percentage protection was calculated as:
[(Absorbance of SEQ ID NO:1+MPP+Iodide)−(Absorbance of MPP+Iodide)/(Absorbance of Untreated)−(Absorbance of MPP+Iodide alone)]*100

B1: SEQ ID NO: 1: variant of the S. rolfsii lectin amino acid sequence (reported as Rec-2 in WO2010/095143) (protein)
chain: TYKITVRVYQTNPDAFFHPVEKTVWKYANGGTWTITDDQHVLTMGGSGTSGTLRFHADNGESFTATFGVHNYKRWCDIVTNLAADETGMVINQQYYSQKNREEARERQLSNYQVKNAKGRNFQIVYTEAEGNDLHANLIIG
- % Protection in the formation of Neurites (w.r.t. MPP+) ([1]; 0.001 μg/ml): 54.7%
- Average No. of Neurites ([1]; 0.001 μg/ml): 27
- % Protection in the formation of Neurites (w.r.t. MPP+) ([1]; 0.01 μg/ml): 47.2%
- Average No. of Neurites ([1]; 0.01 μg/ml): 26
- % Protection in the formation of Neurites (w.r.t. MPP+) ([1]; 0.1 μg/ml): 18.9%
- Average No. of Neurites ([1]; 0.1 μg/ml): 21
- % Protection in the formation of Neurites (w.r.t. MPP+) ([1]; 5 μg/ml): 34%
- Average No. of Neurites ([1]; 5 μg/ml): 24
- level of NGF (brain) ([2]; 0.25 mg/kg, scopolamine treated mice): 62 µg/mL
- brain nerve growth factor (NGF) Mean ([2]; G4: 0.5 mg/kg i.v. qdx14): 71.6 pg/mL and 71.59 pg/mL
- brain nerve growth factor (NGF) Mean ([2]; G5: 0.25 mg/kg i.v. qdx14): 61.96 pg/mL
- brain nerve growth factor (NGF) Mean ([2]; G6: 0.125 mg/kg i.v. qdx14): 38.62 pg/mL
- % Increase in Mitochondrial potential (w.r.t. control) ([3]; 1 μg/mL): 22.7%
- Mitochondrial membrane potential ([3]; 1 μg/mL): 2.3
- % Increase in Mitochondrial potential (w.r.t. control) ([3]; 5 μg/mL): 86.6%
- Mitochondrial membrane potential ([3]; 5 μg/mL): 3.4
- % Increase in Mitochondrial potential (w.r.t. control) ([3]; 10 μg/mL): 115.9%
- Mitochondrial membrane potential ([3]; 10 μg/mL): 4
- % Increase in Mitochondrial potential (w.r.t. control) ([3]; 25 μg/mL): 84.7%
- Mitochondrial membrane potential ([3]; 25 μg/mL): 3.4
- % Increase in Mitochondrial potential (w.r.t. control) ([3]; 50 μg/mL): 77.5%
- Mitochondrial membrane potential ([3]; 50 μg/mL): 3.3
- Percentage Protection ([4]; 0.001 μg/mL): 58.6%
- Percentage Viability (w.r.t control) ([4]; 0.001 μg/mL): 85.1%
- Percentage cytotoxicity ([4]; 0.001 μg/mL): 14.9%
- Percentage Protection ([4]; 0.01 μg/mL): 61.8%
- Percentage Viability (w.r.t control) ([4]; 0.01 μg/mL): 86.3%
- Percentage cytotoxicity ([4]; 0.01 μg/mL): 13.7%
- Percentage Protection ([4]; 0.05 μg/mL): 68.8%
- Percentage Viability (w.r.t control) ([4]; 0.05 μg/mL): 88.8%
- Percentage cytotoxicity ([4]; 0.05 μg/mL): 11.2%
- Percentage Protection ([4]; 0.1 μg/mL): 52.6%
- Percentage Viability (w.r.t control) ([4]; 0.1 μg/mL): 83%
- Percentage cytotoxicity ([4]; 0.1 μg/mL): 17%
- Percentage Protection ([4]; 1 μg/mL): 40.2%
- Percentage Viability (w.r.t control) ([4]; 1 μg/mL): 78.8%
- Percentage cytotoxicity ([4]; 1 μg/mL): 21.2%
- Percentage Protection ([4]; 5 μg/mL): 49.6%
- Percentage Viability (w.r.t control) ([4]; 5 μg/mL): 82.1%
- Percentage cytotoxicity ([4]; 5 μg/mL): 17.9%
- Percentage Protection ([4]; 10 μg/mL): 85.6%
- Percentage Viability (w.r.t control) ([4]; 10 μg/mL): 94.9%
- Percentage cytotoxicity ([4]; 10 μg/mL): 5.1%
- Percentage Protection ([4]; 25 μg/mL): 78.6%
- Percentage Viability (w.r.t control) ([4]; 25 μg/mL): 92.4%
- Percentage cytotoxicity ([4]; 25 μg/mL): 7.6%
- Percentage Protection ([4]; 50 μg/mL): 62.1%
- Percentage Viability (w.r.t control) ([4]; 50 μg/mL): 86.6%
- Percentage cytotoxicity ([4]; 50 μg/mL): 13.4%
